Experimental data: publication PMC12748774 (Nature Communications, 2025)

B1: OZ-D4_GL (germline-reverted OZ-D4, IgG1) (antibody, V domains shown)
VH: QVQLQESGPGLVKPSETLSLTCTVSGGSISSYYWSWIRQPPGKGLEWIGYIYYSGSTNYNPSLKSRVTISVDTSKNQFSLKLSSVTAADTAVYYCARYSSGWSFSFDIWGQGTRVTVSS
VL: QSALTQPASVSGSPGQSITISCTGTSSDVGSYNLVSWYQQHPGKAPKLMIYEGSKRPSGVSNRFSGSKSGNTASLTISGLQAEDEADYYCCSYAGSSTLVFGGGTKLTVL
B2: SMZAb2 Fab (Fab, V domains shown)
VH: EVQLVQSGAEVKKPGSSVKVSCKAPGGTFSSYAMSWVRQAPGQGPEWVGGIVPVYGTSRYAQKFQGRGTITADESTSTVYLELSSLRSEDTALYYCARVRYYGSGTYYGGDAFDFWGQGTMVTVSS
VL: QTVVTQEPSFSVSPGGTVTLTCGLTSDSVSIHLYPSWYQQTPGQAPRALIYNTNTRSSGVPDRFSGSILGNKAALTITGAQADDESVYFCVVYMGSGIWVFGGGTKLTVL
notes: also called Fabs; source: 293F cells, co-transfected, purified (cOmplete His-Tag Purification Resin)

Tests used:
[1] = biological target: ZIKV WT sE (recombinant soluble ectodomain of Zika virus envelope E protein, wild type) (Zika virus, Brazilian strain SPH2015 …, UniProt A0A0U3FSM8); test: BLI; conditions: both partners purified
[2] = biological target: T1, ZIKV CC_FLE sE (G5C/G102C), disulfide-linked dimer (Zika virus (Brazilian Zika SPH2015 …)); test: cryo-EM structure; conditions: both partners purified
T1 construct: source: Drosophila Schneider S2 cells, purified (His-tag column, SEC)

Binder | binding result [1] | stoichiometry N [2]
B1 | no binding (tested: 250 nM) | –
B2 | – | 2
